What was measured:
[1] = molecular target: Lysyl oxidase-like 2 (LOXL2), full-length, endogenous in human aortic smooth muscle cells (human (endogenous in HASMC)) (UniProt Q9Y4K0); assay: proximity ligation; Duolink In Situ Red mouse/rabbit kit on HASMC on coverslips, fixed but not permeabilised; cells untreated, with FXa, or with FXa + rivaroxaban for 24 h; signal as mean gray value, % of average of controls
[2] = molecular target: FXa-processed LOXL2, endogenous in human aortic smooth muscle cells treated with FXa (human (endogenous in HASMC)) (UniProt Q9Y4K0); assay: as above

“Type IV collagen, endogenous in the matrix of human aortic smooth muscle cells (complex)” was tested, and the increase of PLA signal with rivaroxaban (full-length LOXL2 accumulated) [1] was 80 % (increase) and the decrease of PLA signal with FXa against controls [2] was 50 % (decrease).
